# Results as given in a protein production outcome set (Wang et al. 2014).
# Assay: label from the status in PepcDB records
row,Sequence,protein production
1,MIPFKDITLADRDTITAFTMKSDRRNCDLSFSNLCSWRFLYDTQFAVIDDFLVFKFWAGEQLAYMMPVGNGDLKAVLRKLIEDADKEKHNFCMLGVCSNMRADLEAILPERFIFTEDRAYADYIYLRSDLATLKGKKFQAKRNHINRFRNTYPDYEYTPITPDRIQECLDLEAEWCKVNNCDQQEGTGNERRALIYALHNFEALGLTGGILHVNGKIVAFTFGMPINHETFGVHVEKADTSIDGAYAMINYEFANRIPEQYIYINREEDLGIEGLRKAKLSYQPVTILEKYMACLKDHPMDMVRW,not failed
2,MIPLSESFESGIPAIWKTIDADGDGYNWMHLTNFTGQSGLCVSSASYIGGVGALTPDNYLITPELKLPTDALVEIIYWVCTQDLTAPSEHYAVYSSSTGNNAADFVNLLYEETLTAKRIQSPELIRGNRTQGVWYQRKVVLPNDTKYVAFRHFNSTDNFWLNLDEVSILYTPLPRRA,not failed
3,MIPMFTVTLEDSGTLWKSLHSSSESEMTTLPPLPMTRPKLTALARQKLPCSSRKIPRSQLIKEKDDIDHYLEVNFKGLSKEEVAAYRNSYKKNICVDMLRDGYHKSFTELFALMERWDALREAARVRSLFWLQKPLEEQPDKLDYLYHYLTRAEDAERKESFEDVHNNLYALACYFNNSEDKWVRNHFYERCFKIAQLIKIDCGKKEAEAHMHMGLLYEEDGQLLEAAEHYEAFHQLTQGRIWKDETGRSLNLLACESLLRTYRFLSDKMLENKEYKQAIKILIKASEIAKEGSDKKMEAEASYYLGLAHLAAEEYETALTVLDTYCKISTDLDDDLSLGRGYEAIAKVLQSQGEMTEAIKYLKKFVKIARNNFQSLDLVRASTMLGDIYNEKGYYNKASECFQQAFDTTVELMSMPLMDETKVHYGIAKAHQMMLTVNNYIESADLTSLNYLLSWKESRGNIEPDPVTEEFRGSTVEAVSQNSERLEELSRFPGDQKNET,failed
4,MIPQIPLPMLSEGKDCKIREVLAGKALKRRLTEMGFTPSSSIRLIGCERGNLLVNVNGARYALGKGMAMKIMVEPD,failed
5,MIPRCLINQILRLAQASPEREVCGLVGAAAGRRMRCYPVPNVAERPECRFLLDPKGQIDALRAMRERGEELFAIFHSHPTAAAIPSPADLEFAAYPEALHLIVSLGTKGVLEMRGFRIGSSSRPREVELLLAPELEHHHHHH,failed
6,MIPTATYRLQFRNGMTFDRAAALVPYLKNLGISHLYASPIFTATKASTHGYDVTDANEIEPSIGGREGFERLVAELKAQGLGLIIDIVPNHMASSLENAWWRDVLEYGKESRYARHFDIDWSRRLTLPFLGDTFDAVLENGEIAIKPDPATGKPAFAYYDNYYPLAPATWQGREAEILALTDKAAIADLHERQPWKLMSWRDAARSLSYRRFFEVTGLVGMRVEDKTVFDDTHRLILELVRTGAVDGLRIDHIDGLADPKAYLARLRQEVGPACYITVEKILAKGEQLPDDWPVSGTTGYEFIASLAEVLVDDEQIDNLRQAYETVKGAPVDMRAELRAAKLLMVDRNFEGEFTRLLALALSIASELQIAQEESVVRQALRELLIAFPVYRTYGTAEGLPPTDICLLHRIVERVKTLETPPQPEALTFLSRLLTGDVPASSQEEATQFRVRFQQLTGPLMAKSVEDTLFFRQNMGLALNEVGAEPVTHHFSIERFHHEMKTRQARQPDALSGTSTHDTKRGEDARARLYTLTEAPEQWSECLARWRQMNQTHVKFLNDGTAPKSADTWMLYQALTGVWPPVLQPQDETGLNALKTRFEAFVEKALREAKLRTDWVDSNEAYETAMLDYARYLLAPDNQTFLQDFYRSLQPFIRAGLVNSLTQTVIKLTAPGVPDIYQGSEALNFSLVDPDNRREPDFATLAQQLDQLTPGVFSREESWLNGQVNQYVTAALLRLRQQNHELFRFGDYIPLRAVGQRADKVIAYARVNHDDALIVVAPRLVFAECDGLLSQSHSGFWSGTDIIIPGQLNQHRYRNVLTQERLMPGERLSLASHQGGVLVLMSD,failed
7,MIPTISDVSTVEEWRSVAKDIVQRDGDVNWRATIVDWPGLGYSARPKMDYDTDVMEKFVVDFMNSPESPMSQSGNDDLVIIGGGHAATLALRATQRGLLKPSAIAAVAPTWAGPLPIVFGRDSSMVSRYGMLRGTLRAPGVGWMMYNMLVSNEKSIESQYKSHVYADQTNVTDAIIQSRYELTKQKGSRYVPAAFLTGLLDPVSSREEFLQLFADLEGKLPVMVMSTKGAPKRSKAEMEALRGAKGVSKFVEVEGALLPQEEYPSLVAQELYNFLQETFAKC,failed
8,MIQEIIAFLGRRGEFFYISVFMLLMFFIFLISWLIEPRRLINGVLFTIFFISVFAWITVMINKSTSRGLQRAYNLLLLIVFFGIILILVFAWLFLFWNAYFVWKYESHTLPNLLTLFSGFIALIFSVIFILGPGRYLPHWLSALLASIPAIAIYLGLVLYNFLVNLLLYQIYPRHYKQDYLIVLGAGLINGDQVSKLLAARINRAIQFSNRQYQKGRKRPIIIMSGGQGPDEKVPEALAMAKFAQHRGVSPDHILIEDQSKNTYQNMLFSKQLATNDFGGPNFKATFFSNNYHIFRAALLAKEVGLKANGVGAFTRLYYLPNAIIREFAGVFVMHKRRHFVIMGVIVLFFILQAILAAAGIVKFNVI,failed
9,MIQLRAISRGMICGLLLSQLWSCSSTPLEPTAIEVDALFDDSLFKPVTNIPSVEDIFSLPSSVAVDVKRTYDRYAISTKNPLAVHEWLASYINANQSNGHSDFRYQDNLTQTASETFEQRAGNCMSLVVMTSALADIFNIGTEFQDIAIEPVWDKQGDFYLINGHVNLRLLPAQSVHTVYVSTHAILVDFMPERALRGLAKVQINRQTLTAMFYNNMAAESLVEGDLDHAYALVKAGLKSGHFSPALNTLAVIYRHKGDEKRAEQVYRYALKFDPDDMTTLFNLAVILDNQGRLEEWAQIHKKLELARIRNPYYYYDMGEQAYDEHQYREALAWYQRAVDKADYRHEFFFGLSRTYWALGDEKRAKQNMEKALALSREAADKHRCQAKLQAMRQH,failed
10,MIQTKDIIELTDTYGANNYHPLPIVISKAEGVWVEDPEGNRYMDLLSAYSAVNQGHRHPKIINALIDQANRVTLTSRAFHSDQLGPWYEKVAKLTNKEMVLPMNTGAEAVETAIKTARRWAYDVKKVEANRAEIIVCEDNFHGRTMGAVSMSSNEEYKRGFGPMLPGIIVIPYGDLEALKAAITPNTAAFILEPIQGEAGINIPPAGFLKEALEVCKKENVLFVADEIQTGLGRTGKVFACDWDNVTPDMYILGKALGGGVFPISCAAANRDILGVFEPGSHGSTFGGNPLACAVSIAALEVLEEEKLTERSLQLGEKLVGQLKEIDNPMITEVRGKGLFIGIELNEPARPYCEQLKAAGLLCKETHENVIRIAPPLVISEEDLEWAFQKIKAVLS,not failed
11,MIQVGDRFYDQAIVQTMGARAAEAVGLSDRPELSFAVCLSDPAEFLALLLAIREAGASVLPIHPSTPRAAARRLAIDLGCHRLVTDELAVEDLGAEDPGPGGLLQTTSGTTGEPKRIARSWAEIDREIDSYVATFVAPQDMTPLIACPITHSYGLICGVLVALRRGQVPHILGTANPKYLIARLRQTRQPLLYSSPAMLHAIARLLPAGEMIHAAMTSGTLLPDQWLMTIRARTTHLFQQYGCSEAGCVAINPNLSASGDMGAPLPHLRVEAGDTDQPREIVVHVGDRAIRTADLGYTKADGTLVFVGRLDDTINVSGLNVYPKEVEDVVMAMPGVTDAVVFRRLDSLAGERVAVAFSAEHSIAPADLRDWCIKNLAAHQVPMETVRLPRLPRQANGKISRREIAALHAEGRLELLAEETAA,failed
12,MIRAAAKFSREAAATIRGRTISVRGNLIRYSTPLRLIHGEISVPNANHVAIQMVNYALSHARSQKSDESYAQGMLVLEQCLGNQPNDDQVSHDSKATVLLAMSDLLYESGNSSEAIERLKQVMTLTHSSLAIRVVAVEALVGLLIQSGQDDASLDVADEFLKLVKESGHENLQGVVATVKAIKGLAELVKGNIESAESLFRGLENHESCKGNIALSYGEYLHATGNFELAKEMYQKAIQGVTETKESMCSCNMNLKAVSLAATFALGQLESHIGNFGVAEKTLTDALTKTEEHYGDNHPKVGVILTAVALMYGNKAKQERSSSILIQEGLYRKALELMKAPPLDSKGIINMENQEVIALARAGYAELLLIQENRKSEGEKMKSWAESAWRNKRISLSEALTLSEPLGKVAIIDARTTRVL,failed
13,MIRAASDDPAGVDELVAAIAPGLAGLGLPVINRREVVLVTGPWLAGVSGVRAALAERLPQRRFVETAELGPGDAPVAVVFVVSAATALTESDCVLLDTAAEHTDAVVAVVSKIDVHRGWRDVLTSNRDRLAARASRYARVPWVGAAAAPELGEPYLDDLVAAIQKQLADPAVARRNMLRAWESRLLMVARRFDGDAQSAGRRARVDALRQQRRTVLRQGRQSKSEHTIALRAQIQHARVKLSYFARNRCSLLRVELQEHVAGLSRKDIARFAAYTRGRVQEVVAEVGEGAVAHLADVAQLLGVPVQPPVLENLPAVLPTVVAPPLTSRRLEIRLTTLLGAGFGLGIALTLSRLVAGLTPGLAASGMVAGVAIGLAVTAWVVNARALLHDRVVVDRWTGEVTASLRSVVEQLVATRVVAVETLLSTAISERDDAENARVADQVSIIDGELREHAVAAARAAALRDREMPAVRAALEAVRAELGEPGAPTTGLF,failed
14,MIRCLHVLYVRHVMLMSTIHHTKRTLQPYFALVRAPFLVFTAIVILLPAAAAAEAGILNVTNTLLAFGSVLAAHVAVNILNLASDYRTGIDEATDETPYSGGNDVLVSGTLSYRRALAAGVIAILASALFVVPLVSQFGGIVLLFYGVGTVLVVGYTDVFARIGLGEFACGAGLTFLPTVAVGYIQAGTFPESVLYLSVPMFLVGFNLLLLNEFPDVEADRTNGRVNIPVVLGRQTAGYIYFGLVGVLVASLLYPIATGALPATVAVAILPIALLAPIFRTVVLEGNGDLTDDELGNHILWTQTTIVALAVGMAAAAVL,failed
15,MIRFIGNNRRNLITALILYLLTLVPIYVFLFSNGYLNFYGPNLPLFSGKEVEHLLAASIYNPEYGFSVNDGIYFLYLLIFTSLGIYNIIILYKIFLIITFSITFLLLYTMINKAINIFKISRYKSLSLIIGVLFFLLNPLYLEYVAFNFYNLIWGVIIFSYILIKLIDIVVNDKNVTKLDILKSGIALGFSGLMDPRLYIWGSYILILTFIIVIIIKPRLILKLIKYLSLTYISSLPIIAYIYYLFVYPSLITQASTINAITVPAYRPDTYSYIATWSENSLLFNVFAFINSEWTSIVYAPPSILFYPRTQWWFFPHFGNNSLILLPPGIITYIWLASLYIFFIVAALALFDRKRTLASSLLFIPMLLIISLSAGTNVPIKEFVYLLEIDPSKLPIVGGIFATTFAIPYYAEVMALPFASYLSILGTNYLLNRINKEILKKIAVSIIIVLAVFASWQYFNGTLYPSEVTGSFPGNSISLEGYYYPLNPPPQWVHVMNLLSTSRESVRNVKN,failed
16,MIRKFSLIMATYGRKDEVGCFLESLMNSNYPMDKVEVIIVDQNKEIDLEPIISKYKEKIKVVHIKSNERGLALNRNKGLEIATGDIIAFPDDDCEYLVDTLNIVNNYFENEHCDLLMGRIVERNGEDSLREWPKEKIEINKNNFYTKCSSVTMFLDSKKCFVKFNDQLGAGKYFGACEDADLIYKNCKKGLKIIYNPELQIYHPHYDSNSNMDDKKIYSYGLGFGAMVKSNFDFSMLILFIKAEGYHFLKSLIYLITFKTTKSKRSWLAFKSRIKGFFEYKN,failed
17,MIRKKQTEKPSEWDPPAPSTVYIKIKNIPYETFKTKLNQGLVTTDLDQIRYRLEKHIYCCGVCSKHVNGYCVITNRKAEPGWICKSFVPKEEFIYLDSRPDRKDPAEFRYLSETGLEKDYIESAGARERRHGNEGTKALYDEGVTLYRQGRLKLALEAFDSVLEANPLDFAALFHKGNALLKLKRYEEALEVFERASEINQENAGLWTNLGFIFTKLERFRDSLEAFEKSISLNPVQKNAWEGRDAVIARVRLCEERLRESEEALKKNPEDPDTLFKIGKIHLRLGEQEKAIQAFKKALEIKPENAEAWQFRGKVLFKAGSEKEALHAFEKATRLKPDYAEAWFEKGNAFLKLENLKGAENAFKIAARLWDSKGIKSKAESARDKVKRLHSSN,failed
